The text below walks through data of the supplement of paper PMC9112550, “Optimization of the antimicrobial peptide Bac7 by deep mutational scanning” (BMC Biology, 2022).

The test system of the series is Escherichia coli TOP10. In words: shrunken log2 fold change of peptide-encoding DNA abundance (4.5 h post-induction vs induction); higher = less antimicrobial activity (less host growth inhibition). Particulars: time post-induction: 4.5 h; library: site-saturation at positions 5, 18, 19, 20.
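Further: peptides expressed intracellularly from a pBAD plasmid library in pooled LB shake-flask culture, induced with 0.3% L-arabinose, DNA abundance read by NGS, three biological replicates, DESeq2 with apeglm shrinkage.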

Regarding RRIRWRPPRLPRPRPRPYIQPRP, the “shrunken log2 fold change” value was -1.07.
The result for RRIRIRPPRLPRPRPRPFAIPRP reads -0.886.
Regarding RRIRERPPRLPRPRPRPQREPRP, the “shrunken log2 fold change” value turned out to be 0.0255.
The result for RRIRVRPPRLPRPRPRPDTQPRP reads 0.0912.
In the case of RRIRCRPPRLPRPRPRPFSEPRP it was -0.929; in that of RRIRPRPPRLPRPRPRPLSHPRP, -0.27; in that of RRIRHRPPRLPRPRPRPGDKPRP, -0.0257.
As for RRIRSRPPRLPRPRPRPKREPRP, the “shrunken log2 fold change” value turned out to be 0.393.
With RRIRKRPPRLPRPRPRPDRHPRP, the “shrunken log2 fold change” value is -0.091.
With RRIRNRPPRLPRPRPRPCPTPRP, the “shrunken log2 fold change” value was -0.0624.
The result for RRIRHRPPRLPRPRPRPSWAPRP reads 0.19; that for RRIRTRPPRLPRPRPRPFQNPRP, 0.0326; that for RRIRPRPPRLPRPRPRPMQCPRP, 0.00596.
In the case of RRIRFRPPRLPRPRPRPYPVPRP, the “shrunken log2 fold change” value is -0.115.
In the case of RRIRMRPPRLPRPRPRPDSMPRP, the “shrunken log2 fold change” value was found to be 0.025.
In the case of RRIRGRPPRLPRPRPRPHTVPRP, the “shrunken log2 fold change” value is -0.311.
With RRIRQRPPRLPRPRPRPDPLPRP, the “shrunken log2 fold change” value was 0.00221.
Take RRIRIRPPRLPRPRPRPYQCPRP: the “shrunken log2 fold change” value was -0.349.
In the case of RRIRFRPPRLPRPRPRPMTEPRP, the “shrunken log2 fold change” value is -0.0907.
Turning to RRIRARPPRLPRPRPRPHMSPRP, the “shrunken log2 fold change” value is -0.181.
As for RRIRNRPPRLPRPRPRPNADPRP, the “shrunken log2 fold change” value was -0.194.
For RRIRFRPPRLPRPRPRPPYQPRP, the “shrunken log2 fold change” value was -0.125.
Turning to RRIRKRPPRLPRPRPRPKHQPRP, the “shrunken log2 fold change” value is 0.132.
In the case of RRIRNRPPRLPRPRPRPDIKPRP it was -0.171.
Take RRIRDRPPRLPRPRPRPAQYPRP: the “shrunken log2 fold change” value was -0.0825.
The result for RRIRKRPPRLPRPRPRPYMGPRP reads -0.00674; that for RRIRWRPPRLPRPRPRPNSYPRP, -0.197; that for RRIRSRPPRLPRPRPRPWLQPRP, -0.0695.
As for RRIRFRPPRLPRPRPRPCANPRP, the “shrunken log2 fold change” value amounted to 0.133.
Consider RRIRGRPPRLPRPRPRPTKYPRP, for which the “shrunken log2 fold change” value came to 0.189.
In the case of RRIRWRPPRLPRPRPRPCSIPRP it was -0.134; in that of RRIRHRPPRLPRPRPRPVALPRP, -0.112.
In the case of RRIRGRPPRLPRPRPRPLFLPRP it was 0.0673; in that of RRIRHRPPRLPRPRPRPLLSPRP, -0.0464; in that of RRIRVRPPRLPRPRPRPRQFPRP, 0.238.
In the case of RRIRVRPPRLPRPRPRPFSKPRP it was -0.138; in that of RRIRKRPPRLPRPRPRPDYPPRP, -0.0226; in that of RRIRSRPPRLPRPRPRPEEGPRP, 0.0515.
In the case of RRIRHRPPRLPRPRPRPNYQPRP, the “shrunken log2 fold change” value is -0.28.
In the case of RRIRGRPPRLPRPRPRPVMSPRP it was 0.401; in that of RRIRTRPPRLPRPRPRPDMVPRP, -0.00822; in that of RRIRHRPPRLPRPRPRPLQSPRP, -0.0699.
With RRIRKRPPRLPRPRPRPQKCPRP, the “shrunken log2 fold change” value was 0.00165.
With RRIRDRPPRLPRPRPRPLYDPRP, the “shrunken log2 fold change” value is -0.107.
Take RRIRCRPPRLPRPRPRPDHPPRP: the “shrunken log2 fold change” value is 0.264.
As to RRIRARPPRLPRPRPRPPKSPRP, the “shrunken log2 fold change” value was found to be 0.658.
Take RRIRYRPPRLPRPRPRPYKYPRP: the “shrunken log2 fold change” value is -0.238.
Regarding RRIRGRPPRLPRPRPRPRLKPRP, the “shrunken log2 fold change” value is 0.777.
The result for RRIRFRPPRLPRPRPRPYRFPRP reads -0.243.
Take RRIRKRPPRLPRPRPRPIHCPRP: the “shrunken log2 fold change” value came to 0.0163.
For RRIRVRPPRLPRPRPRPIVYPRP, the “shrunken log2 fold change” value is -0.0876.
On to RRIRLRPPRLPRPRPRPMQQPRP, for which the “shrunken log2 fold change” value was found to be 0.0192.
The result for RRIRARPPRLPRPRPRPVQYPRP reads 0.0979; that for RRIRPRPPRLPRPRPRPDACPRP, 0.183.
In the case of RRIRDRPPRLPRPRPRPMNTPRP it was -0.125.
The result for RRIRHRPPRLPRPRPRPRFTPRP reads 0.007; that for RRIRKRPPRLPRPRPRPVIDPRP, 1.29; that for RRIRGRPPRLPRPRPRPPFPPRP, 1.17.
Turning to RRIRWRPPRLPRPRPRPHNHPRP, the “shrunken log2 fold change” value is -0.707.
For RRIRSRPPRLPRPRPRPGTRPRP, the “shrunken log2 fold change” value is -0.0748.
In the case of RRIRQRPPRLPRPRPRPIYIPRP it was -0.46; in that of RRIRCRPPRLPRPRPRPMLTPRP, -0.0319; in that of RRIRERPPRLPRPRPRPIQKPRP, -0.184.
As to RRIRARPPRLPRPRPRPCYDPRP, the “shrunken log2 fold change” value was -0.56.
In the case of RRIRARPPRLPRPRPRPYVQPRP it was -0.471; in that of RRIRARPPRLPRPRPRPHNNPRP, -0.363; in that of RRIRDRPPRLPRPRPRPKSLPRP, 0.196.
Turning to RRIRKRPPRLPRPRPRPWNGPRP, the “shrunken log2 fold change” value was -0.0782.
For the sequence RRIRMRPPRLPRPRPRPWMQPRP, the “shrunken log2 fold change” value turned out to be 2.38.
Consider RRIRQRPPRLPRPRPRPKHAPRP, for which the “shrunken log2 fold change” value came out at 0.401.
RRIRCRPPRLPRPRPRPMHTPRP: the “shrunken log2 fold change” value was -0.106.
RRIRKRPPRLPRPRPRPFFTPRP: the “shrunken log2 fold change” value worked out at 0.19.
Take RRIRERPPRLPRPRPRPNYKPRP: the “shrunken log2 fold change” value was -0.722.
The result for RRIRNRPPRLPRPRPRPRITPRP reads 0.0468; that for RRIRCRPPRLPRPRPRPQWLPRP, -0.133.
As to RRIRHRPPRLPRPRPRPPDQPRP, the “shrunken log2 fold change” value amounted to 0.594.
Consider RRIRHRPPRLPRPRPRPAKVPRP, for which the “shrunken log2 fold change” value was found to be 0.00133.
As to RRIRKRPPRLPRPRPRPTIMPRP, the “shrunken log2 fold change” value is -0.0223.
Take RRIRLRPPRLPRPRPRPVYLPRP: the “shrunken log2 fold change” value is -1.14.
In the case of RRIRKRPPRLPRPRPRPFGAPRP it was 0.45; in that of RRIRWRPPRLPRPRPRPQCCPRP, -0.0128; in that of RRIRGRPPRLPRPRPRPRWQPRP, 0.994.
In the case of RRIRYRPPRLPRPRPRPKWWPRP it was -0.0129; in that of RRIRHRPPRLPRPRPRPGHLPRP, -0.0129.
In the case of RRIRWRPPRLPRPRPRPGCTPRP it was 0.194; in that of RRIRQRPPRLPRPRPRPIFKPRP, -0.208; in that of RRIRNRPPRLPRPRPRPFQSPRP, -0.0983.
On to RRIRSRPPRLPRPRPRPLDDPRP, for which the “shrunken log2 fold change” value was -0.0921.
In the case of RRIRSRPPRLPRPRPRPPMPPRP it was 0.486; in that of RRIRRRPPRLPRPRPRPYKPPRP, 0.0267; in that of RRIRFRPPRLPRPRPRPMQWPRP, -0.113.
In the case of RRIRYRPPRLPRPRPRPDPMPRP it was -0.0159.
For RRIRQRPPRLPRPRPRPFWAPRP, the “shrunken log2 fold change” value is 0.289.
Regarding RRIRVRPPRLPRPRPRPSQRPRP, the “shrunken log2 fold change” value was -0.0119.
Take RRIRMRPPRLPRPRPRPTVMPRP: the “shrunken log2 fold change” value is 0.563.
In the case of RRIRLRPPRLPRPRPRPHADPRP, the “shrunken log2 fold change” value was -0.299.
The result for RRIRKRPPRLPRPRPRPETMPRP reads 0.0612.
The result for RRIRWRPPRLPRPRPRPQDPPRP reads 0.0126; that for RRIRWRPPRLPRPRPRPMVTPRP, -0.072; that for RRIRNRPPRLPRPRPRPANEPRP, -0.00326.
In the case of RRIRHRPPRLPRPRPRPCCPPRP it was -0.243.
RRIRSRPPRLPRPRPRPEHFPRP: the “shrunken log2 fold change” value was -0.246.
The result for RRIRHRPPRLPRPRPRPWYAPRP reads -0.41; that for RRIRIRPPRLPRPRPRPCLEPRP, -0.808.
In the case of RRIRKRPPRLPRPRPRPTMTPRP it was 0.608; in that of RRIRHRPPRLPRPRPRPKMFPRP, -0.0772; in that of RRIRVRPPRLPRPRPRPGNKPRP, -0.286.
RRIRKRPPRLPRPRPRPRCMPRP: the “shrunken log2 fold change” value came to 0.401.
In the case of RRIRRRPPRLPRPRPRPALSPRP it was 0.528.
Consider RRIRFRPPRLPRPRPRPEIAPRP, for which the “shrunken log2 fold change” value was -0.0213.
As for RRIRERPPRLPRPRPRPVTDPRP, the “shrunken log2 fold change” value was -0.069.
With RRIRGRPPRLPRPRPRPGYEPRP, the “shrunken log2 fold change” value was found to be 0.365.
The result for RRIRVRPPRLPRPRPRPANVPRP reads -0.597; that for RRIRFRPPRLPRPRPRPANNPRP, -0.917; that for RRIRFRPPRLPRPRPRPCMNPRP, 0.0346.
Turning to RRIRTRPPRLPRPRPRPTRWPRP, the “shrunken log2 fold change” value amounted to 0.301.
The result for RRIRCRPPRLPRPRPRPQLQPRP reads 0.0481; that for RRIRKRPPRLPRPRPRPLGHPRP, 0.166.
Turning to RRIRCRPPRLPRPRPRPNYFPRP, the “shrunken log2 fold change” value is -0.763.
The result for RRIRQRPPRLPRPRPRPAVSPRP reads -0.0348; that for RRIRLRPPRLPRPRPRPVWCPRP, 0.0297.
The result for RRIRRRPPRLPRPRPRPKYMPRP reads -0.444.
RRIRIRPPRLPRPRPRPPNYPRP: the “shrunken log2 fold change” value is -0.923.
In the case of RRIRHRPPRLPRPRPRPMQEPRP it was -0.01; in that of RRIRKRPPRLPRPRPRPAGAPRP, 0.698.
